As a reminder, the Kd is the concentration at which binding is half-saturated. A lower Kd goes with higher affinity. Broadly, the koff is the rate constant with which the complex falls apart. One may read the kon as the rate constant with which the complex forms.

Substitutions are numbered along the chain they refer to.

These results are taken from patent US20190202907A1 (180 THERAPEUTICS, published 2019).

One experiment concerns the target cyno ST2L (cyno). Nature of the experiment: affinity table; method not stated.
The next experiment addresses T1, human ST2L (human, UniProt Q01638 19-328, limits assumed).
T1 construct: also called IL-1R4; IL-33Ra
T1 sequence (looked up): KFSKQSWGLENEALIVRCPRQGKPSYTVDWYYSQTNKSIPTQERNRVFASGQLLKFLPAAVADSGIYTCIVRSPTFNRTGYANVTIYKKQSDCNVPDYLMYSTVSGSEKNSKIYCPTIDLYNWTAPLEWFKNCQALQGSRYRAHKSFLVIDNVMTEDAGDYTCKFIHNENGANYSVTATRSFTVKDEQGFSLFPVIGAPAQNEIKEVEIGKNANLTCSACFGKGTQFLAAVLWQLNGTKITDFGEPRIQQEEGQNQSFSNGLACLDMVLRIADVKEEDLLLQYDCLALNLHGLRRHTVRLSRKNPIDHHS
Nature of the experiment: affinity table; method not stated.

B1: STLM226 (antibody, from another filing, V domains shown)
VH: EVQLVQSGAEVKKPGATVKISCKVSAFNIKDDYMHWVQQAPGKGLEWMGRIDPAIGNTEYAEKFQGRVTITADTSTDTAYMELSSLRSEDTAVYYCATGDFYAMAYWGQGTLVTVSS
VL: DIQMTQSPSSLSASVGDRVTITCITNTDIDDVIHWYQQKPGKAPKLLIYEGNTLRPGVPSRFSGSGSGTDFTLTISSLQPEDFATYYCLQSDNLLTFGQGTKLEIK
In the experiment with cyno ST2L (cyno), B1 registered a dissociation constant (Kd) of 0.301 nM, an off-rate (koff) of 0.0301 s⁻¹ and an on-rate constant (kon) of 1e+08 M⁻¹ s⁻¹. In the experiment with human ST2L, this molecule showed a Kd of 0.09 nM, a koff of 0.00193 s⁻¹ and a kon of 2.16e+07 M⁻¹ s⁻¹.

B2: STLM232 (antibody, from another filing, V domains shown)
VH: B1 VH
VL: B1 VL with L73F, F83I, L94M
For the molecule B2, in the experiment with cyno ST2L (cyno), the dissociation constant Kd amounted to 0.08 nM, the koff was 0.00797 s⁻¹ and the association rate constant (kon) came to 1e+08 M⁻¹ s⁻¹. In the experiment with human ST2L, this molecule gave a Kd of 0.025 nM, a koff of 0.000449 s⁻¹ and an on-rate (kon) of 1.78e+07 M⁻¹ s⁻¹.

B3: STLM230 (antibody, from another filing, V domains shown)
VH: B1 VH
VL: B1 VL with L94M
On to B3, for which, in the experiment with cyno ST2L (cyno), the dissociation constant Kd was determined as 0.144 nM, the off-rate constant (koff) was 0.0073 s⁻¹ and the on-rate constant (kon) is 5.06e+07 M⁻¹ s⁻¹. In the experiment with human ST2L, this molecule displayed a Kd of 0.038 nM, a koff of 0.000426 s⁻¹ and a kon of 1.11e+07 M⁻¹ s⁻¹.

B4: STLM228 (antibody, from another filing, V domains shown)
VH: B1 VH
VL: B1 VL with S10T, D70E, E81D, L94M
Take B4: in the experiment with cyno ST2L (cyno), the Kd was found to be 0.155 nM, the koff is 0.0155 s⁻¹ and the kon worked out at 1e+08 M⁻¹ s⁻¹. For the same molecule, in the experiment with human ST2L, the Kd came out at 0.052 nM, the koff was 0.00104 s⁻¹ and the kon turned out to be 2.01e+07 M⁻¹ s⁻¹.

B5: STLM227 (antibody, from another filing, V domains shown)
VH: B1 VH
VL: B1 VL with M4L, S10F, D70E, L94M
In the experiment with cyno ST2L (cyno), B5 gave a dissociation constant Kd of 0.294 nM, an off-rate constant (koff) of 0.0294 s⁻¹ and a kon of 1e+08 M⁻¹ s⁻¹. For the same molecule, in the experiment with human ST2L, the Kd was 0.064 nM, the dissociation rate constant (koff) turned out to be 0.0017 s⁻¹ and the kon was 2.66e+07 M⁻¹ s⁻¹.

B6: STLM229 (antibody, from another filing, V domains shown)
VH: B1 VH
VL: B1 VL with L11V, L94M
Regarding B6, in the experiment with cyno ST2L (cyno), the equilibrium dissociation constant (Kd) is 0.085 nM, the off-rate constant (koff) is 0.0085 s⁻¹ and the kon stood at 1e+08 M⁻¹ s⁻¹. In the experiment with human ST2L, this molecule showed a Kd of 0.035 nM, a koff of 0.000445 s⁻¹ and a kon of 1.29e+07 M⁻¹ s⁻¹.

B7: STLM231 (antibody, from another filing, V domains shown)
VH: B1 VH
VL: B1 VL with A43V, F83V, L94M
For B7, in the experiment with cyno ST2L (cyno), the equilibrium dissociation constant (Kd) turned out to be 0.172 nM, the koff was determined as 0.0143 s⁻¹ and the kon was determined as 8.27e+07 M⁻¹ s⁻¹. In the experiment with human ST2L, the Kd amounted to 0.046 nM, the dissociation rate constant (koff) stood at 0.000913 s⁻¹ and the kon worked out at 1.97e+07 M⁻¹ s⁻¹.

B8: STLM103 (antibody, from another filing, V domains shown)
VH: EVQLLESGGGLVQPGGSLRLSCAASGFTFSFYDMFWVRQAPGKGLEWVSSIRGEGGRTDYADSVKGRFTISRDNSKNTLYLQMNSLRAEDTAVYYCARDPWSTEGSFFVLDYWGQGTLVTVSS
VL: EIVLTQSPATLSLSPGERATLSCRASQSVDDDLAWYQQKPGQAPRLLIYDASNRATGIPARFSGSGSGTDFTLTISSLEPEDFAVYYCQQYIGAPITFGQGTKVEIK
In the experiment with cyno ST2L (cyno), B8 registered an equilibrium dissociation constant (Kd) of 0.031 nM, an off-rate (koff) of 0.000202 s⁻¹ and a kon of 6.42e+06 M⁻¹ s⁻¹. Further, in the experiment with human ST2L, the dissociation constant (Kd) worked out at 0.041 nM, the koff was 0.000163 s⁻¹ and the kon was 3.97e+06 M⁻¹ s⁻¹.

B9: STLM220 (antibody, from another filing, V domains shown)
VH: B8 VH with S50D, R57G, D59A
VL: B8 VL
Take B9: in the experiment with cyno ST2L (cyno), the Kd amounted to 0.009 nM, the off-rate (koff) came out at 0.00014 s⁻¹ and the on-rate constant (kon) worked out at 1.6e+07 M⁻¹ s⁻¹. In the experiment with human ST2L, the Kd came out at 0.016 nM, the koff amounted to 9.53e-05 s⁻¹ and the kon was 5.8e+06 M⁻¹ s⁻¹.

B10: STLM107 (antibody, from another filing, V domains shown)
VH: B8 VH with F31D, D33A, S50A, R52E, R57E, D59N
VL: B8 VL
Consider B10, for which, in the experiment with cyno ST2L (cyno), the equilibrium dissociation constant (Kd) came to 0.007 nM, the koff was 0.00055 s⁻¹ and the on-rate constant (kon) worked out at 1e+08 M⁻¹ s⁻¹. In the experiment with human ST2L, this molecule had a Kd of 0.012 nM, a koff of 0.000341 s⁻¹ and an on-rate (kon) of 2.9e+07 M⁻¹ s⁻¹.

B11: STLM218 (antibody, from another filing, V domains shown)
VH: B8 VH with F31V, Y32D, D33S, R52E, E54N, R57A, D59Y
VL: B8 VL
Take B11: in the experiment with cyno ST2L (cyno), the Kd stood at 0.018 nM, the off-rate (koff) came to 0.000265 s⁻¹ and the on-rate (kon) was 1.45e+07 M⁻¹ s⁻¹. Moreover, in the experiment with human ST2L, the Kd is 0.023 nM, the koff was found to be 0.000224 s⁻¹ and the on-rate constant (kon) turned out to be 9.89e+06 M⁻¹ s⁻¹.

B12: STLM108 (antibody, from another filing, V domains shown)
VH: B8 VH with F31I, F35I, S50T, R52K, R57G, D59Y
VL: B8 VL
B12: in the experiment with cyno ST2L (cyno), the equilibrium dissociation constant (Kd) came to 0.029 nM, the off-rate constant (koff) amounted to 0.000598 s⁻¹ and the kon worked out at 2.05e+07 M⁻¹ s⁻¹. Also, in the experiment with human ST2L, the dissociation constant (Kd) was found to be 0.097 nM, the koff was 0.000222 s⁻¹ and the kon worked out at 2.29e+06 M⁻¹ s⁻¹.

B13: STLM221 (antibody, from another filing, V domains shown)
VH: B8 VH with F31I, S50Y, R57D, D59N
VL: B8 VL
For B13, in the experiment with cyno ST2L (cyno), the Kd amounted to 0.022 nM, the koff was 0.00013 s⁻¹ and the kon was 6.04e+06 M⁻¹ s⁻¹. In the experiment with human ST2L, this molecule showed a Kd of 0.035 nM, a koff of 9.61e-05 s⁻¹ and a kon of 2.73e+06 M⁻¹ s⁻¹.

B14: STLM222 (antibody, from another filing, V domains shown)
VH: B8 VH with F31I, D33S, S50D, R52G, R57G, D59S
VL: B8 VL
In the experiment with cyno ST2L (cyno), B14 had a Kd of 0.029 nM, a koff of 0.000345 s⁻¹ and a kon of 1.18e+07 M⁻¹ s⁻¹. Also, in the experiment with human ST2L, the Kd is 0.037 nM, the koff came to 0.000301 s⁻¹ and the kon was 8.22e+06 M⁻¹ s⁻¹.

B15: STLM219 (antibody, from another filing, V domains shown)
VH: B8 VH with F31G, S50D, R52G, R57S, D59N
VL: B8 VL
In the experiment with cyno ST2L (cyno), B15 showed a Kd of 0.022 nM, a koff of 0.00023 s⁻¹ and a kon of 1.07e+07 M⁻¹ s⁻¹. In the experiment with human ST2L, this molecule returned a Kd of 0.027 nM, an off-rate constant (koff) of 0.000201 s⁻¹ and an on-rate (kon) of 7.54e+06 M⁻¹ s⁻¹.

B16: STLM217 (antibody, from another filing, V domains shown)
VH: B8 VH with F31V, S50D, R52K, R57E, D59S
VL: B8 VL
For B16, in the experiment with cyno ST2L (cyno), the dissociation constant Kd was found to be 0.004 nM, the koff was 0.000138 s⁻¹ and the kon turned out to be 3.81e+07 M⁻¹ s⁻¹. In the experiment with human ST2L, this molecule registered an equilibrium dissociation constant (Kd) of 0.017 nM, a koff of 0.000126 s⁻¹ and a kon of 7.27e+06 M⁻¹ s⁻¹.
